{
  "source": "paper PMC3730230",
  "target": "EGFR 1045+ add-back mutant (pY-null 9Y- backbone with Y1045 added back) (human) (UniProt P00533)",
  "assay": "co-IP",
  "note": "Values joined by “and” are separate entries in the source; they are usually repeats but may differ in a detail not shown here. Equal values may be shown once.",
  "data": [
    {"substance": "Cbl, endogenous in NR6 cells (from UniProt P22682 1-913) (enzyme)", "values": [
      {"measurement": "fold reduction of association against EGFR-WT", "value": "4 fold and 5 fold"}
    ]}
  ]
}
